This note sets out measurements from ChEMBL document CHEMBL1127724, “Design and synthesis of 6-fluoropurine acyclonucleosides : potential prodrugs of acyclovir and ganciclovir” (Bioorg Med Chem Lett, 1994).

Substrate in data set [1]: Nc1ncnc2c1ncn2[C@@H]1O[C@H](CO)[C@@H](O)[C@H]1O
The experiment in a line: Vmax for Calf intestinal mucosa adenosine deaminase was determined.

Substrate in data set [2]: Nc1ncnc2c1ncn2[C@@H]1O[C@H](CO)[C@@H](O)[C@H]1O
The experiment in a line: Michaelis-Menten constant for Calf intestinal mucosa adenosine deaminase was determined.

B1: Adenosine deaminase (Bos taurus), P56658 (protein)
chain: MAQTPAFNKPKVELHVHLDGAIKPETILYYGRKRGIALPADTPEELQNIIGMDKPLSLPEFLAKFDYYMPAIAGCREAVKRIAYEFVEMKAKDGVVYVEVRYSPHLLANSKVEPIPWNQAEGDLTPDEVVSLVNQGLQEGERDFGVKVRSILCCMRHQPSWSSEVVELCKKYREQTVVAIDLAGDETIEGSSLFPGHVKAYAEAVKSGVHRTVHAGEVGSANVVKEAVDTLKTERLGHGYHTLEDATLYNRLRQENMHFEVCPWSSYLTGAWKPDTEHPVVRFKNDQVNYSLNTDDPLIFKSTLDTDYQMTKNEMGFTEEEFKRLNINAAKSSFLPEDEKKELLDLLYKAYGMPSPASAEQCL
One may read the Km as the concentration of substrate that gives half-maximal velocity. Regarding B1, the Vmax (uM min-1 unit-1) in data set [1] came to 0.76. Also, the Michaelis constant (Km) in data set [2] is 50.5 µM.
